Experimental data: patent publication US20080274112A1, “Nogo Receptor Antagonists” (priority 2003, published 2008)
Entries after “also recorded” stand apart in the source; their conditions may differ.

Tests used:
[1] = molecular target: polypeptide p-617 (SEQ ID NO: 1) (Rattus norvegicus, UniProt Q99M75); assay: Specificity ELISA on polypeptide p-617; assay type: binding
Description: To determine the specificity of the monoclonal and Fab-phage antibodies produced in Examples 1 and 2, we performed an ELISA using a panel of Nogo receptor-1 polypeptides. The panel consisted of sNogoR310-Fc (a fusion protein comprising amino acids 26-310 of rat Nogo receptor-1 and a rat Fc fragment), sNogoR344-Fc (see supra), polypeptide p-617 (SEQ ID NO: 1), polypeptide p-618 (a 19-amino acid polypeptide from the LRR7 region of rat Nogo receptor-1; FIG. 2; SEQ ID NO: 11) and polypeptides p-4 and p-5 (polypeptides from the LRR5 and LRRCT regions of Nogo receptor-1, respectively). Ovalbumin and BSA were used as controls.

[2] = molecular target: T1, human NgR1 (Homo sapiens, UniProt Q9BZR6); assay: Antibody binding to human Nogo receptor-1
T1 sequence (Q9BZR6 27-447): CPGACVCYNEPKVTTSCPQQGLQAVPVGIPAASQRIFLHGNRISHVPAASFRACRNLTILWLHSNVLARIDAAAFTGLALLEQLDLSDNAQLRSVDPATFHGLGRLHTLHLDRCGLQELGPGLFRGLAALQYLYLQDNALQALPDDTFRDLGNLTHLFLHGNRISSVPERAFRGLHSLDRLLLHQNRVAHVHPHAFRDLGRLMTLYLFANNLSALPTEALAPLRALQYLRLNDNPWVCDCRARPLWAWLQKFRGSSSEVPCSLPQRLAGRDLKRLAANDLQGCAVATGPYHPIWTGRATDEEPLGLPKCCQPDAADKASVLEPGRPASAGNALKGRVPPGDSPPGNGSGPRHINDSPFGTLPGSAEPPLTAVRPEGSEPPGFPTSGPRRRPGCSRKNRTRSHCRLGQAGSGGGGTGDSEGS

[3] = molecular target: T2, OM-gp + sNogoR344-Fc (Rattus norvegicus, UniProt Q99M75, A303T/C287S/C43R/E284G/T53A); assay: mAb/Fab inhibition of OM-gp binding to sNogoR344-Fc (ELISA)
T2 construct: amino acid residues 26-344 of rat Nogo receptor-1; made in house
T2 sequence (Q99M75 26-344 C43R/T53A/E284G/C287S/A303T): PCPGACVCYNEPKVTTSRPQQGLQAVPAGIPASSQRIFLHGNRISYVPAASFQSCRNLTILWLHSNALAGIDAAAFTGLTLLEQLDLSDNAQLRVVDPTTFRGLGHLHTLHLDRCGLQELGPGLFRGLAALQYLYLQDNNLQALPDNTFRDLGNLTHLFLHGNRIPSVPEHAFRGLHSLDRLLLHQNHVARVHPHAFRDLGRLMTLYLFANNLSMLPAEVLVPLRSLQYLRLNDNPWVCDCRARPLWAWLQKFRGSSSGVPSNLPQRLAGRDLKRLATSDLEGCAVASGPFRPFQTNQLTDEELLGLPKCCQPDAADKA
Experimental: (§1) 0.5 μg of a soluble Nogo receptor-1 fusion protein comprising amino acid residues 26-344 of rat Nogo receptor-1 and the hinge and Fc region of the rat IgG1 molecule (sNogoR344-Fc) produced as described below was immobilized on 250 μg of protein-A- or wheatgerm agglutinin-conjugated SPA beads (Amersham Pharmacia Biotech) for 2 hours at 25° C. SPA beads coupled with Fc-sNogoR-1, anti-Nogo receptor-1 mAb and 1 μl ^125I-Nogo66 (Amersham, 2000 Ci/mmol, 1 nM) in 50 μl of the HEPES-buffered incubation medium (10 mM HEPES, pH 7.4, 0.1% bovine serum albumin, 0.1% ovalbumin, 2 mM MgCl2, 2 mM CaCl2 and protease inhibitors) was added to each sample well. After 16 hours, radioactivity was measured in quadruplicate samples using a TopCount® (Packard). IC50 values were calculated from a curve-fit analysis (FIG. 3) (PRISM, GraphPad Software, NJ). In some experiments, we also used AP-ligand conjugates (e.g. AP-Nogo66) and detected binding by monitoring alkaline phosphatase activity. We also assayed the ability of the mAbs to block binding of the ligands MAG-Fc and AP-OM-gp to Nogo receptor-1.
The calculated IC50 for Nogo66 for 7E11 and 1H2 were 400 nM and 60 nM, respectively. The data from ELISAs monitoring mAb-mediated inhibition of binding of the three ligands to Nogo receptor-1 are summarized in Table 6.
We also performed ELISA binding assays using the Fab-phage 14D5.

[4] = molecular target: T3, sNogoR344-Fc (residues 26-344 of rat Nogo receptor-1) (Rattus norvegicus, UniProt Q99M75, A303T/C287S/C43R/E284G/T53A); assay: Inhibition of 125I-Nogo66 binding to sNogoR344-Fc on SPA beads; conditions: curve-fit
T3 construct: amino acid residues 26-344 of rat Nogo receptor-1; made in house
T3 sequence (Q99M75 26-344 C43R/T53A/E284G/C287S/A303T): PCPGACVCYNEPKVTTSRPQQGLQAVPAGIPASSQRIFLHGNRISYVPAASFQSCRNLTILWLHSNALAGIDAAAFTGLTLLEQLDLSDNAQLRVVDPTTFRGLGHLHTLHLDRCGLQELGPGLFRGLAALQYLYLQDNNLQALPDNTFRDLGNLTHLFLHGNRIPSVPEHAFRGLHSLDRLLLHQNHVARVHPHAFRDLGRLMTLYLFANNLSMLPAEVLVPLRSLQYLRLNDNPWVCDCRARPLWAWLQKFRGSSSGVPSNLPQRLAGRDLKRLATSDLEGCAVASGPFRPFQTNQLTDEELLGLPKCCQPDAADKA
Experimental: as §1

[5] = molecular target: T4, rat NgR1 (Rattus norvegicus, UniProt Q99M75); assay: Antibody binding to rat Nogo receptor-1
T4 sequence (Q99M75 27-447): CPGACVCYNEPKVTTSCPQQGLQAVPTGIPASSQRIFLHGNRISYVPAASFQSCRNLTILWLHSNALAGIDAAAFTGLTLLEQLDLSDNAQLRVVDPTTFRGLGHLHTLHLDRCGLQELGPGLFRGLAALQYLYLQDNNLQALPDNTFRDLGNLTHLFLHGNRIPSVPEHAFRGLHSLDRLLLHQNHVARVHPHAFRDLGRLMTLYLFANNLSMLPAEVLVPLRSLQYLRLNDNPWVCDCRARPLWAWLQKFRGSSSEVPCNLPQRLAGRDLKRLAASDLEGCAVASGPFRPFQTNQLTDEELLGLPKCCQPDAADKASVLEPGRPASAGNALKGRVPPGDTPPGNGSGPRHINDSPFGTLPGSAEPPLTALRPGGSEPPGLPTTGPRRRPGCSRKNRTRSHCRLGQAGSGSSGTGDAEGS

[6] = molecular target: T5, human Nogo receptor-1 (Homo sapiens, UniProt Q9BZR6); assay: Immunohistochemical staining of fixed and live cells expressing human Nogo receptor-1; assay type: cell-based
T5 construct: expressed in transfected cells; host or cells: COS-7 or 293 cells
T5 sequence (Q9BZR6 27-447): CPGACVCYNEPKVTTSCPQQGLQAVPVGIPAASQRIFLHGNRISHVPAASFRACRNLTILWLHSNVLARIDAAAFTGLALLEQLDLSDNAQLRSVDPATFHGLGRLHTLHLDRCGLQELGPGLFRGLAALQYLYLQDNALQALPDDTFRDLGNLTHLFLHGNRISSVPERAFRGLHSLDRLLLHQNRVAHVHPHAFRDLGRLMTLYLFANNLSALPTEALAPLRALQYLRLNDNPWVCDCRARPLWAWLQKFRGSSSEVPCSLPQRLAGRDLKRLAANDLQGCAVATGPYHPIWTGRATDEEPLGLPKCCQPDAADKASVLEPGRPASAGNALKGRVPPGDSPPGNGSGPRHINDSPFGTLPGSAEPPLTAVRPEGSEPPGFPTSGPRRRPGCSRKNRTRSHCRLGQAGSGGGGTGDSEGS
Experimental: To further characterize the binding properties of anti-Nogo receptor-1 mAbs produced as described in Example 1, we compared binding to both fixed and live COS-7 or 293 cells expressing rat or human Nogo receptor-1.
Nogo receptor-1 transfected and non-transfected cells were plated in 8-well Lab-Tek® culture slides, fixed with 4% paraformaldehyde for 15 minutes, blocked with 10% normal goat serum, 0.1% Triton X-100 in PBS for 1 hour. Mab 7E11 was added at 15 μg/ml and 1.5 μg/ml in blocking solution and incubated for 2 hours at room temperature; Alexa®-conjugated secondary antibody anti-mouse (Molecular Probes) was incubated at a 1:300 dilution in blocking solution for 1 hour; DAPI was added at 5 μg/ml to the secondary antibody to label all nuclei.
Transfected and non-transfected cells were plated in 8 well Lab-Tek® culture slides, blocked with FACS buffer (containing 4% donor horse serum) for 30 minutes at 4° C., incubated with 7E11 at 15 μg/ml and 1.5 μg/ml in FACS buffer for 1 hour at 4° C., rinsed and incubated with secondary antibody anti-mouse-Alexa® (1:300 in FACS buffer) for 30 minutes at 4° C.

B1: 7E11: murine monoclonal anti-Nogo receptor-1 antibody, IgG1 kappa, ATCC PTA-4587; immunogen rat Nogo receptor-1 residues 110-125 (antibody, V domains shown)
VH: VQLQESGAELVMPGASVKMSCKASGYTFTDYWMHWVKQRPGQGLEWIGAIDPSDSYSSYNQNFKGKATLTVDGSSSTAYMQLSSLTSEDSAVYYCARRITEAGAWFAYWGQGTTVT
VL: DVVMTQTPLSLPVSLGDQASISCRSSQSLVHSNGNTYLHWYLQKPGQSPKLLIYKVSNRFSGVPDRFSGSGSGTDFTLKISRVDAEDLGVYFCSQSTHVPFTFGGGTKLEIKRADAAPTVSISHH
[1]
  binding to polypeptide p-617: specifically bound
[2]
  binding to human NgR1: bound; also recorded: binds well
[3]
  inhibition of binding of OM-gp to sNogoR344-Fc: inhibited binding
[3]; curve-fit analysis
  EC50: 150 nM
[4]
  IC50: 400 nM
[5]
  binding to rat NgR1: bound; also recorded: binds well
[6]
  binding to cells expressing human Nogo receptor-1: bound both fixed and live cells
